In PMC8034652 (Nucleic Acids Research, 2021):

What was measured:
[…] = target: the molecule itself; experiment: […]
FOXM1-DBD = target: T1, FOXM1-DBD (UniProt Q08050 222-360); experiment: EMSA
T1 sequence: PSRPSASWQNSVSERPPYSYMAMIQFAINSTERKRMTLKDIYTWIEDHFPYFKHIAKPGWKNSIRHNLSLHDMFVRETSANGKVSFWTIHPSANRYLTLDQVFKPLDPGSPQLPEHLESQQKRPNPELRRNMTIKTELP

FOXO3-DBD = FOXO3-DBD (UniProt O43524 158-253); experiment: EMSA
FOXI1-DBD = target: T2, FOXI1-DBD (UniProt Q12951 119-223); experiment: EMSA
T2 sequence: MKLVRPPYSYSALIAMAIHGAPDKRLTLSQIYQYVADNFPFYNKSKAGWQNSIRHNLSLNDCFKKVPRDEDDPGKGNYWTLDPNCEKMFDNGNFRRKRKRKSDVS

FOXO1-DBD [1] = target: T3, FOXO1-DBD (human, UniProt Q12778 151-266); experiment: ITC
FOXC2-DBD [2] = target: T4, FOXC2-DBD (UniProt Q99958 72-171); experiment: EMSA
T4 sequence: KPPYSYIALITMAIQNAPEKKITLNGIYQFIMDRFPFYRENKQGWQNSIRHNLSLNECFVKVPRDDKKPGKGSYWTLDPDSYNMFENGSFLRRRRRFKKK

FOXC2-DBD [3] = target: T4, FOXC2-DBD; experiment: crystal structure
FOXO1-DBD [4] = target: T3, FOXO1-DBD; experiment: crystal structure
crystal structure = target: the molecule itself; experiment: crystal structure
FOXO1-DBD R225E = FOXO1-DBD R225E (human, UniProt Q12778 151-266, R225E); experiment: EMSA
FOXO1-DBD Q227R = FOXO1-DBD Q227R (human, UniProt Q12778 151-266, Q227R); experiment: EMSA

B1: FOXI1-DBD (residues 119-223) (domain or fragment)
chain: MKLVRPPYSYSALIAMAIHGAPDKRLTLSQIYQYVADNFPFYNKSKAGWQNSIRHNLSLNDCFKKVPRDEDDPGKGNYWTLDPNCEKMFDNGNFRRKRKRKSDVS
binding result ([…]): binds

B2: DIV2_26 (dsDNA)
DNA 1: GACGAAGTAAACATGTTTACTTCGTC
DNA 2: GACGAAGTAAACATGTTTACTTCGTC
binding result (FOXM1-DBD): binds
binding result (FOXO3-DBD): binds
binding result (FOXI1-DBD): binds
Kd (FOXO1-DBD [1]): 150 nM
binding result (FOXC2-DBD [2]): binds

B3: FOXO3-DBD (residues 158-253) (domain or fragment)
chain: GNLSYADLITRAIESSPDKRLTLSQIYEWMVRCVPYFKDKGDSNSSAGWKNSIRHNLSLHSRFMRVQNEGTGKSSWWIINPDGGKSGKAPRRRAVS
binding result ([…]): binds

B4: DIV2 20-bp crystal DNA (dsDNA)
DNA 1: ACCGTAAACATGTTTACGGT
DNA 2: ACCGTAAACATGTTTACGGT
binding result (FOXC2-DBD [3]): binds
binding result (FOXO1-DBD [4]): binds

B5: human FOXO1-DBD (residues 151-266) (domain or fragment)
chain: KSSSSRRNAWGNLSYADLITKAIESSAEKRLTLSQIYEWMVKSVPYFKDKGDSNSSAGWKNSIRHNLSLHSKFIRVQNEGTGKSSWWMLNPEGGKSGKSPRRRAASMDNNSKFAKS
stoichiometry N (crystal structure): 2

B6: FKH_26 (dsDNA)
DNA 1: GACGAAGTAAACACGGCAGGTTCGTC
DNA 2: GACGAACCTGGCGTGTTTACTTCGTC
binding result (FOXO1-DBD R225E): binds
binding result (FOXO1-DBD Q227R): binds
Kd (FOXO1-DBD [1]): 1380 nM
